Where no end group is shown, it is not given here.
T1: human Ang-2 (human, UniProt O15123 19-496, limits assumed)
T1 construct: Sources differ by assay: R&D Systems 623-AN (mixture of 2 truncated versions) for initial screening; also called hAng-2; huAng-2
T1 sequence (looked up): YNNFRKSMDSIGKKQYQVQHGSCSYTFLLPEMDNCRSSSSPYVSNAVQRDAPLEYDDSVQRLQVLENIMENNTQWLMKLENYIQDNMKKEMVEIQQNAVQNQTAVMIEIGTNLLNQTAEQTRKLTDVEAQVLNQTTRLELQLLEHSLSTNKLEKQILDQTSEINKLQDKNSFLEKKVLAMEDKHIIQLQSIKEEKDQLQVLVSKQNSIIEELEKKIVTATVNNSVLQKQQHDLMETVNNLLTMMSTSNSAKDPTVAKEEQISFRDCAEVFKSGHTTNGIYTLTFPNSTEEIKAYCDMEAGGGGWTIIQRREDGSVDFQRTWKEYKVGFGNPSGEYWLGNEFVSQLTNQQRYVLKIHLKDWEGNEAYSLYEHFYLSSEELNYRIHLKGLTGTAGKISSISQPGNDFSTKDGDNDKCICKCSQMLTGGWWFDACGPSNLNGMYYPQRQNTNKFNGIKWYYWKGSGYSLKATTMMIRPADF

B1: TN8-14 (peptide)
peptide: HQICKWDPWTCKHW
notes: Peptide from phage display selection on Ang-2
B2: TN12-9 (peptide)
peptide: FDYCEGVEDPFTFGCDNH
notes: as for B1
B3: L1 (peptide)
peptide: KFNPLDELEETLYEQFTFQQ
notes: as for B1
B4: C17 (peptide)
peptide: QYGCDGFLYGCMIN
notes: as for B1
B5: TN8-8 (peptide)
peptide: KRPCEEMWGGCNYD
notes: as for B1
B6: PEO4(L1-7 Peptide)2 (peptide)
peptide: C(1,11‑bis‑maleimidotetraethyleneglycol)GGGGGAQTNFMPMDDLEQRLYEQFILQQGLE
modifications: also: two peptides joined through Cys1 by 1,11-bis-maleimidotetraethyleneglycol, one on each end
B7: L1-7 Peptide (peptide)
peptide: CGGGGGAQTNFMPMDDLEQRLYEQFILQQGLE
notes: Synthetic peptide with N-terminal Cys and 5Gly linker; also called L1-7(unPEGylated Peptide); L1-7 free peptide
B8: PEG3.4K(L1-7 Peptide)2 (peptide)
peptide: C(poly(ethylene glycol)‑bis‑maleimide 3.4 kDa)GGGGGAQTNFMPMDDLEQRLYEQFILQQGLE
modifications: also: two peptides joined through Cys1 by PEG-bis-maleimide 3.4 kDa, one on each end

What follows are binders tested against T1, human Ang-2 (assay: phage display selection and phage ELISA on Ang-2).
Experimental: Three filamentous phage libraries, designated as “TN8-IX” (5×10⁹ independent transformants), “TN12-I” (1.4×10⁹ independent transformants), and “Linear” (2.3×10⁹ independent transformants) (all from Dyax Corp.), were used to select for Ang-2 binding phage. […] For all three libraries, the phage from the first round of selection were eluted only in a non-specific manner for further rounds of selection.
An XL-1 Blue MRF′ culture was grown until OD₆₀₀ reached about 0.5. About thirty μl of this culture was aliquoted into each well of a 96-well microtiter plate. About 10 μl of eluted phage (section 4) was added to each well and allowed to infect bacteria for about 15 minutes at room temperature. About 100 μL of LB media containing approximately 12.5 μg/ml of tetracycline and approximately 50 μg/ml of ampicillin were added to each well. The microtiter plate was then incubated with shaking overnight at about 37° C. The recombinant Ang-2 protein (about 1 μg/ml in PBS) was allowed to bind to the 96 well Maxisorp plates (NUNC) overnight at about 4° C. As a control, the pure streptavidin was coated onto a separate Maxisorp plate at about 2 μg/ml in PBS.
On the following day, liquid in the protein coated Maxisorp plates was discarded, and each well was blocked with about 300 μl of 5% milk solution at about 4° C. overnight (alternatively, 1 hour at room temperature). The milk solution was then discarded, and the wells were washed three times with the PBST solution. After the last washing step, about 50 μl of PBST-4% milk was added to each well of the protein coated Maxisorp plates.

Row | Binder | binding result
1 | B1 | binds
2 | KRPCEEIFGGCTYQ [TN8-Con1] | binds
3 | B2 | binds
4 | B3 | binds
5 | QEECEWDPWTCEHM [TN8-Con4] | binds
6 | B4 | binds
7 | B5 | binds

These binders were tested against T1, human Ang-2 (assay: neutralization ELISA vs Tie-2-Fc).

Row | Binder | IC50 [nM]
8 | B6 | 0.064
9 | C(methoxy‑poly(ethylene glycol)‑maleimide 5 kDa)GGGGGAQTNFMPMDDLEQRLYEQFILQQGLE [mPEG5K-(L1-7 Peptide)] | 11.7
10 | B7 | 0.49
11 | B8 | 0.058
